In article PMC3630103 (2013):

B1: chimeric mouse-human CHK-152 N297Q (aglycosyl variant) (antibody, V domains shown)
VH: QVQLQQPGAALVKPGASAMMSCKASGYTFTSYWITWVKQRPGQGLEWIGDIYPGTGRTIYKEKFKTKATLTVDTSSSTAFMQLNSLTSEDSAVYYCARGYGSPYYALDYWGQGTSVTVSS
VL: DIVLTQSPASLAVSQGQRATISCKASQSVDYDGDSYVNWYQQKPGQSPKLLIYDASNLESGIPARFSGSGSGTDFTLNIHPVEEEDVATYYCQESNEDPRTFGGGTKLEIK
B2: chimeric mouse-human CHK-152 (antibody, V domains shown)
VH: B1 VH
VL: B1 VL

Target: CHIKV pE2-E1 (E3-E2-E1) of the CHIKV-LR strain (Chikungunya virus (strain La Reunion …, UniProt Q8JUX5))
Sequence (Q8JUX5 whole entry, looked up): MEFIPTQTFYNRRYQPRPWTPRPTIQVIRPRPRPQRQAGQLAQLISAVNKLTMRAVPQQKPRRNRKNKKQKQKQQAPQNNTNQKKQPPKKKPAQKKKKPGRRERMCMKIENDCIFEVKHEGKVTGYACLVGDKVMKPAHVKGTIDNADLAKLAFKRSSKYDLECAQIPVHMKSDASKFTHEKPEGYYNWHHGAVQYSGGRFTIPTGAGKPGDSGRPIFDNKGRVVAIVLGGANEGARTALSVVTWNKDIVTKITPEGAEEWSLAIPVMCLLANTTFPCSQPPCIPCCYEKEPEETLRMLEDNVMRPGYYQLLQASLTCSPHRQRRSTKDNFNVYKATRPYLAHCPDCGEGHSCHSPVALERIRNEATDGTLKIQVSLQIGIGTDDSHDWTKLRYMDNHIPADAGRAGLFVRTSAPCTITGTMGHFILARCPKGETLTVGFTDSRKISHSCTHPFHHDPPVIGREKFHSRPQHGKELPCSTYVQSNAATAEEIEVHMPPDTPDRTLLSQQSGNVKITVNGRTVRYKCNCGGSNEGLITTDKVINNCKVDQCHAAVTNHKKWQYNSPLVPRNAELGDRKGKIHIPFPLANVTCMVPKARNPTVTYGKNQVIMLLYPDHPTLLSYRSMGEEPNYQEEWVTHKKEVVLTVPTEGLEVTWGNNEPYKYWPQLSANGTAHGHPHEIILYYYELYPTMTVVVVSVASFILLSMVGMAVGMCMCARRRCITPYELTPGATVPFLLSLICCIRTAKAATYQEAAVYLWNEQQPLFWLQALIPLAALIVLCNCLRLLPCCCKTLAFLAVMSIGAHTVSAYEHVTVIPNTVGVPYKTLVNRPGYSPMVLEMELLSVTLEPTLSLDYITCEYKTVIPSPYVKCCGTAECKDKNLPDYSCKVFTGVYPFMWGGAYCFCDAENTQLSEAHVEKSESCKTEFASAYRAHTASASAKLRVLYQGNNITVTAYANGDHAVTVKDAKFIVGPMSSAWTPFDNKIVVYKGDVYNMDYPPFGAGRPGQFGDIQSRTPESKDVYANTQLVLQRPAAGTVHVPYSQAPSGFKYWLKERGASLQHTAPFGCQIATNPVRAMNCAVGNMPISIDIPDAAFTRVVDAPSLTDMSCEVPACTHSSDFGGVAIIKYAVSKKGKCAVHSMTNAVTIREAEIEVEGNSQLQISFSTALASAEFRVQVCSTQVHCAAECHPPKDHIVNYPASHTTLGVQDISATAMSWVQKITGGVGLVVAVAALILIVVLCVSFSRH
Assay: SPR

Binder	Kd	koff
B1	3.9 nM	0.00051 s⁻¹
B2	3.1 nM	0.0004 s⁻¹
